From article PMC4498328 come the findings set out here.

The target of experiment [1] is Barley yellow dwarf virus-GPV readthrough protein (RTP), AcGFP1 fusion (Barley yellow dwarf virus-GPV). As to the kind of experiment: co-IP; chemiluminescent Co-IP: pAcGFP1-bait and pProLabel-prey cotransfected into HEK293 cells, lysed after 48 h, anti-GFP polyclonal antibody and protein A/G agarose beads, ProLabel activity read as relative light units; negative control pAcGFP1-Lam/pProLabel-T.

For experiment [2], the target named is Barley yellow dwarf virus-GPV coat protein (CP), AcGFP1 fusion (Barley yellow dwarf virus-GPV). The experiment is described as above.

“cytochrome P450 4g15, ProLabel fusion (natural protein)”: in experiment [1], the relative strength of the interaction against the negative control (times the negative control) came to 3.4.

“pancreatic lipase-related protein, ProLabel fusion (natural protein)”: the relative strength of the interaction against the negative control (times the negative control) in experiment [1] was 23; in experiment [2], 3.

In the case of “cytochrome c oxidase polypeptide IV-like, ProLabel fusion (natural protein)”, the relative strength of the interaction against the negative control (times the negative control) in experiment [1] amounted to 4.2.

With “nascent polypeptide-associated complex subunit alpha, ProLabel fusion (natural protein)”, the relative strength of the interaction against the negative control (times the negative control) in experiment [1] is 4.9; in experiment [2] it was 1.6.

Consider “complexin, ProLabel fusion (natural protein)”, for which the relative strength of the interaction against the negative control (times the negative control) in experiment [1] came to 5.6.

Take “twinstar, ProLabel fusion (natural protein)”: in experiment [1], the relative strength of the interaction against the negative control (times the negative control) amounted to 7.1.

“tropomyosin, ProLabel fusion (natural protein)”: in experiment [1], the relative strength of the interaction against the negative control (times the negative control) came to 8.7.
